We go through two molecules from patent US6991909B2, “Enkurin and uses thereof” (University of Massachusetts, priority 2002, dated 2006).

The target of test [1] is T1, enkurin-HA (Mus musculus (Mouse)) (UniProt Q6SP97).
T1 sequence: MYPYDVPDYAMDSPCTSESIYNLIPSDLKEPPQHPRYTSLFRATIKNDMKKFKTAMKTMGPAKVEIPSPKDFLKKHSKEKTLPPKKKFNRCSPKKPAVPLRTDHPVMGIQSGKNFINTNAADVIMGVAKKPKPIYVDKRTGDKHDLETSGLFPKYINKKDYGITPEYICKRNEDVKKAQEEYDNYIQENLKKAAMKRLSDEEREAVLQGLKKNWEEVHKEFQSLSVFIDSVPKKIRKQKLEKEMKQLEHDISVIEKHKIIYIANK
Briefly: co-immunoprecipitation with anti-HA-Sepharose from HEK/TRPC2 cell extracts, blot with anti-RDAS; peptide competes with TRPC2.

Test [2] deals with T2, TRPC2 stably expressed in HEK-293 cells (mouse, UniProt Q9R244 1-1172).
T2 sequence (looked up): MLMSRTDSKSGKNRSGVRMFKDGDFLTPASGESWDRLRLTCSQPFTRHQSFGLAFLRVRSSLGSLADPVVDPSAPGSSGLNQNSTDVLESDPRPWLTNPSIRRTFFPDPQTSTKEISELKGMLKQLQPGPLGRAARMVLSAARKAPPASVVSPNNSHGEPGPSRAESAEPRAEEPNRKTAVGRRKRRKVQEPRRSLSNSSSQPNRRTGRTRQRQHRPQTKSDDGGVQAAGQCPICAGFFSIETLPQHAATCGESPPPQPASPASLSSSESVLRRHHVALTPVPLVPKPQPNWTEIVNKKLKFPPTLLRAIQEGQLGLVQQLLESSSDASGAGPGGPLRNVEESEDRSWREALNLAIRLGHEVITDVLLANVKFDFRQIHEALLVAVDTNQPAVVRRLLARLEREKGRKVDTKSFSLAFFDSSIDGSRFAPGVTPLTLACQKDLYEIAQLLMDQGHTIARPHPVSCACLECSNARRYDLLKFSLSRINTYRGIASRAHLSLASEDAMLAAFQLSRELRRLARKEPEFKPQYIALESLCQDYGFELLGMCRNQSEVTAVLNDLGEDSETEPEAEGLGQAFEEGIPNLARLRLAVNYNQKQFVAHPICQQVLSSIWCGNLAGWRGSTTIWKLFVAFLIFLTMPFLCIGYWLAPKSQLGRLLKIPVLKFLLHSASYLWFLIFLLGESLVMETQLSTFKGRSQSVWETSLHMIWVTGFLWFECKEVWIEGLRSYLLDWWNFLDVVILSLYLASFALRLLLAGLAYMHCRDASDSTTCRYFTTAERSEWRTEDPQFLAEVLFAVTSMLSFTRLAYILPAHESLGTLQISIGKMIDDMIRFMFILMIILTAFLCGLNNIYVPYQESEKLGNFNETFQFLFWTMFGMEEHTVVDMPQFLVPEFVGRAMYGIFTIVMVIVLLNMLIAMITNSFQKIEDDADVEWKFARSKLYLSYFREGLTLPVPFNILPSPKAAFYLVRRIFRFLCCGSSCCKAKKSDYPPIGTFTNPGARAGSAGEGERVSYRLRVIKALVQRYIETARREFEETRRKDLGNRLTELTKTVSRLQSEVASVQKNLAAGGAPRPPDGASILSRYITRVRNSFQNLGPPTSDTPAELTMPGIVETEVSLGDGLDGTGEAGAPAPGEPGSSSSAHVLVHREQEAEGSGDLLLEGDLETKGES
Briefly: cell-based or functional assay.

A further test relates to TRPC2 channel. Put plainly: Perforated whole cell patch clamp of ATP-evoked currents in HEK-293 cells stably transfected with TRPC2. The test is classed as cell-based, mouse. From the text: The effects of enkurin on the ion channel activity of TRPC2 were examined using HEK-293 cells that were stably transfected with TRPC2. HEK cells provide a good model for the study of receptor-activated ion channels since they have very low levels of endogenous ion channel activity and thus provide a relatively uncomplicated model for the study of exogenous channels. These cells also have endogenous […] receptors that regulate phospholipase C (PLC), thereby providing a facile and reversible means for activating PLC-dependent ion channels, HEK cells have been used to study TRPC2 function (Jungnickel et al., supra 2001).
In experiments on the TRPC2 channel in HEK cells, ion channel activity was measured using the perforated, whole cell patch clamp. This configuration permits the determination of ion currents while simultaneously maintaining cytoplasmic integrity.
ATP ([…]) evoked an inward current in TRPC2-expressing HEK cells (Derassi et al, 1998, Trends Cell Biol 8:84-87) that reaches peak amplitude in 20-30 seconds. However, when TRPC2 and enkurin were co-expressed (trace 2), the evoked current was 5-6 times larger (131+/−12 pA, n=5). This current activates about 25 times faster (peak amplitude in 0.5-1 seconds) and inactivates more rapidly. Total TRPC2 current, as estimated by integrating the areas beneath these traces, is increased nine +/−two-fold by enkurin. […] Anti-RDAS blocked >95% of the ATP-evoked current in cells that had been co-transfected with TRPC2 and with enkurin (trace 2). Thus, enkurin is stimulating TRPC2 currents, not acting at some undefined endogenous channel or forming a channel itself.
In the assay, HEK cells are used that constitutively express TRPC2. Such cell lines can be produced using methods known in the art. The line should express reproducible levels of TRPC2 current. In a line that we developed, enkurin increased the peak amplitude of ATP-evoked TRPC2 currents by >5-6 fold and the activation and inactivation rates by 25 fold. In addition, this signal can be “zero-ed” using anti-RDAS, the TRPC2 blocking antibody (FIG. 7). Given this magnitude of current enhancement by enkurin in such a cell line, even subtle effects of enkurin mutants, candidate compounds, or antisense molecules are detectable.

The mark [3] stands for this setting: TRPC2 and enkurin co-expressed vs TRPC2 alone.

B1: TRPC2336-361 peptide (peptide)
peptide: LPQHAATCGESPPPQPASPASLSSS
Molecule B1 returned a reduction of co-immunoprecipitation of TRPC2 with enkurin-HA in test [1] of more than 90%.

B2: enkurin (other)
chain: MDSPCTSESIYNLIPSDLKEPPQHPRYTSLFRATIKNDMKKFKTAMKTMGPAKVEIPSPKDFLKKHSKEKTLPPKKKFNRCSPKKPAVPLRTDHPVMGIQSGKNFINTNAADVIMGVAKKPKPIYVDKRTGDKHDLETSGLFPKYINKKDYGITPEYICKRNEDVKKAQEEYDNYIQENLKKAAMKRLSDEEREAVLQGLKKNWEEVHKEFQSLSVFIDSVPKKIRKQKLEKEMKQLEHDISVIEKHKIIYIANK
Consider B2, for which, in test [2], the “activation rate of the ATP-evoked current” value is approximately 25 fold and the “total TRPC2 current (integrated area beneath traces)” value came out at 9 fold. The “time to peak amplitude” value in the test with TRPC2 channel (TRPC2 and enkurin co-expressed) was in the range of 0.5 to 1 s. In the test on TRPC2 channel (setting [3]), the current activates faster entry is reported as “about 25 times”; the “increase of peak amplitude of ATP-evoked TRPC2 current” value is reported as 5-6 fold; the “increase of total TRPC2 current, estimated by integrating areas beneath traces” value is given as “nine +/−two”. The ATP-evoked current in the test with TRPC2 channel (TRPC2 and enkurin co-expressed, n=5) was 131+/−12 pA. Further, the “stimulation of ATP-evoked current relative to TRPC2 alone” value in the test with TRPC2 channel (enkurin co-expressed with deletion mutant of TRPC2 lacking the PKD1 domain) is given as “no stimulation”.
